Assay results taken from patent publication US20180120314.

Assays:
[1] = target: T1, Methyl Red (MR)-AAPV-NBD-UBI29-41
T1 chain: AAPVKTGRAKRRMQYNRR

B1: human neutrophil elastase (HNE) (protein)
chain: IVGGRRARPHAWPFMVSLQLRGGHFCGATLIAPNFVMSAAHCVANVNVRAVRVVLGAHNLSRREPTRQVFAVQRIFENGYDPVNLLNDIVILQLNGSATINANVQVAQLPAQGRRLGNGVQCLAMGWGLLGRNRGIASVLQELNVTVVTSLCRRSNVCTLVRGRQAGVCFGDSGSPLVCNGLIHGIASFVRGGCASGLYPDAFAPVAQFVNWIDSIIQ
- bacterial labelling by NBD fluorescence (confocal microscopy) after cleavage of the probe (TAMRA-AAPV-NBD-PMX): Once the probe has been cleaved by elastase, the bacteria are labelled by the probe element due to the fluorescence of NBD
- fluorescence of the cleaved TAMRA compound (spectrophotometer, ex 525 nm, Em 580 nm) (TAMRA-AAPV-NBD-PMX): the fluorescence of the cleaved TAMRA compound increases in an elastase dependent manner and are inhibited with an elastase inhibitor such as sivelestat
- bacterial labelling (NBD fluorescence, confocal microscopy) after cleavage of the probe in a co-culture of bacteria and neutrophils [1]: These images confirm the ability of the probe to be cleaved by neutrophil derived HNE and to label bacteria
